Laboratory results: patent US6602854B1, “Branched multimeric Apo A-I agonist compounds” (priority 1997, dated 2003)
Where two headings read alike, the source gives them in different places.

How the values were obtained:
[1] = system: mixture of HDL, LDL and VLDL
Procedure: (§1) The association of peptide 4 (SEQ ID NO:4) with human lipoprotein fractions was determined by incubating ^14C-labeled peptide 4 (SEQ ID NO:4) with each lipoprotein class (HDL, LDL and VLDL) and a mixture of the different lipoprotein classes.
(§2) HDL, LDL and VLDL were isolated by KBr density gradient ultracentrifugation at d=1.21 g/ml and purified by FPLC on a Superose 6B column size exclusion column (chromatography was carried out with a flow rate of 0.7 ml/min. and a running buffer of 10 mM Tris (pH 8), 115 mM NaCl, 2 mM EDTA and 0.01% NaN3). ^14C-labeled peptide 4 was incubated with HDL, LDL and VLDL at a peptide:phospholipid ratio of 1:5 (mass ratio) for 2 h at 37° C. The required amount of lipoprotein (volumes based on amount needed to yield 1000 μg) was mixed with 0.2 ml of peptide stock solution (1 mg/ml) and the solution was brought up to 2.2 ml using 0.9% of NaCl according to TABLE XIII:
(§3) After incubating for 2 hr. at 37° C., an aliquot (0.1 ml) was removed for liquid scintillation counting to determine the total radioactivity, the density of the remaining incubation mixture was adjusted to 1.21 g/ml with KBr, and the samples centrifuged at 100,000 rpm (300,000 g) for 24 hours at 4° C. in a TLA 100.3 rotor using a Beckman tabletop ultracentrifuge. The resulting supernatant was fractionated by removing 0.3 ml aliquots from the top of each sample for a total of 5 fractions, and 0.05 ml of each fraction was used for liquid scintillation counting. The top two fractions contain the floating lipoproteins, the other fractions (3-5) correspond to proteins/peptides in solution.

[2] = system: VLDL
Procedure: as §1, §2, §3

[3] = system: HDL
Procedure: as §1, §2, §3

[4] = Circular dichroism: degree of helicity (free, SUVs, micelles, TFE); conditions: for % Helicity Free: free in buffer
Procedure, shortened: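 Far-UV CD (190–260 nm) at 37 °C on 5 μM peptide in 5 mM phosphate pH 7.4, either free, with EPC:Chol 20:1 SUVs (Ri 30 or 50), with lysophosphatidylcholine micelles (Ri 100), or in 90% TFE. Helicity derived from mean residue ellipticity at 222 nm or CONTIN fitting to reference spectra.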

[5] = Control (peptide without lipoprotein)

PVLDLFRELLNELLEALKQKLK [peptide 4]
Recovery [1, 5]: 89%
radioactivity Total [1, 5]: 79170
radioactivity Total before centrifugation [1, 5]: 88550
radioactivity in Fraction 1 [1, 5]: 650
radioactivity in Fraction 2 [1, 5]: 1000
radioactivity in Fraction 3 [1, 5]: 6590
radioactivity in Fraction 4 [1, 5]: 36550
radioactivity in Fraction 5 [1, 5]: 34380
FPLC analysis of the LP/peptide incubation mixture (in words) ([1]; LP/Peptide): nearly all of the ^14C-labeled peptide 4 was associated with the HDL fraction
Recovery ([1]; LP/Peptide): 87%
radioactivity Total ([1]; LP/Peptide): 83650
radioactivity Total before centrifugation ([1]; LP/Peptide): 96646
radioactivity in Fraction 2 ([1]; LP/Peptide): 12990
radioactivity in Fraction 3 ([1]; LP/Peptide): 3810
radioactivity in Fraction 4 ([1]; LP/Peptide): 1510
radioactivity in Fraction 5 ([1]; LP/Peptide): 5090
radioactivity in Fraction 1 ([1]; LP/Peptide (HDL, LDL and VLDL)): 60250
labeled peptide associated with the lipoprotein fraction ([1]; LP/Peptide, all lipoprotein fractions): 88%
Recovery ([2]; VLDL/Peptide): 75%
radioactivity Total ([2]; VLDL/Peptide): 73280
radioactivity Total before centrifugation ([2]; VLDL/Peptide): 97306
radioactivity in Fraction 1 ([2]; VLDL/Peptide): 42920
radioactivity in Fraction 2 ([2]; VLDL/Peptide): 19280
radioactivity in Fraction 3 ([2]; VLDL/Peptide): 3930
radioactivity in Fraction 4 ([2]; VLDL/Peptide): 2600
radioactivity in Fraction 5 ([2]; VLDL/Peptide): 4550
share of total radioactivity in fractions 1 and 2 (associated with lipoprotein) ([2]; incubation with isolated VLDL): 85%
Recovery ([3]; HDL/Peptide): 91%
radioactivity Total ([3]; HDL/Peptide): 89970
radioactivity Total before centrifugation ([3]; HDL/Peptide): 98494
radioactivity in Fraction 1 ([3]; HDL/Peptide): 61510
radioactivity in Fraction 2 ([3]; HDL/Peptide): 17620
radioactivity in Fraction 3 ([3]; HDL/Peptide): 2260
radioactivity in Fraction 4 ([3]; HDL/Peptide): 3130
radioactivity in Fraction 5 ([3]; HDL/Peptide): 5450
share of total radioactivity in fractions 1 and 2 (associated with lipoprotein) ([3]; incubation with isolated HDL): 88%
% helicity in the presence of SUVs [4]: 97%
% helicity in the presence of TFE [4]: 94%
% Helicity Bound (micelles) ([4]; peptide concentration 0.15 μM): 65%
% Helicity Free ([4]; peptide concentration 0.15 μM): 42%
% Helicity Bound (micelles) ([4]; peptide concentration 0.40 μM): 68%
% Helicity Free ([4]; peptide concentration 0.40 μM): 58%
% Helicity Free ([4]; peptide concentration 2.0 μM): 63%
% Helicity Bound (micelles) ([4]; peptide concentration 5.0 μM): 95%
% Helicity Free ([4]; peptide concentration 5.0 μM): 80%
% Helicity TFE ([4]; peptide concentration 50.0 μM): 94%
He (%) free ([4]; percent helicity of free, unbound peptide): 80%
He (%) SUVs ([4]; percent helicity of peptide-SUV complexes): 97%
He (%) TFE ([4]; percent helicity of peptide-TFE solution): 94%
He (%) mics ([4]; percent helicity of peptide-micelle complexes): 95%
stability of the α-helical structure with temperature ([4]; temperature range of 5-45° C., data not shown): completely stable
